How the values were obtained:
[1] = biological target: T1, kinase-deficient IKKα (K44M), Q60680
T1 chain: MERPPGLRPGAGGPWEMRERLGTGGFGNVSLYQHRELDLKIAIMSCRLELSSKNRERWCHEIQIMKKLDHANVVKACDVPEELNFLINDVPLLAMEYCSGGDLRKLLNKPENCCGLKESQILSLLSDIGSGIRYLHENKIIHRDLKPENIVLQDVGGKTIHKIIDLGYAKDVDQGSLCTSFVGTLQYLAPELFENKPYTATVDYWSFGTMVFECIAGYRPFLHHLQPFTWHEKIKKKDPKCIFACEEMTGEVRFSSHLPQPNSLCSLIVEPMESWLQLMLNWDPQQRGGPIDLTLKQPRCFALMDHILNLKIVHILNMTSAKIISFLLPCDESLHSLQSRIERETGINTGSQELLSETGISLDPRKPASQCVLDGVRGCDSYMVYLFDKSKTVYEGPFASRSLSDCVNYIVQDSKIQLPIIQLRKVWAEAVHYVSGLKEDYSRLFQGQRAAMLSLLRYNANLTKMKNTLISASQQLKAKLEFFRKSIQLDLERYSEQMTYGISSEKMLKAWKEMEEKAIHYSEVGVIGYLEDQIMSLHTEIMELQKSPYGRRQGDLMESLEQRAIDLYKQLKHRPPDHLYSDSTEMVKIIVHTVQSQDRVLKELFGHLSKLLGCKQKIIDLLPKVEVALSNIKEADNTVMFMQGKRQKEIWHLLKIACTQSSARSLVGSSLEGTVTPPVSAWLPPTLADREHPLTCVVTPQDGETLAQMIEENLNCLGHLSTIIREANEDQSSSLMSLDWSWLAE

[2] = biological target: T2, IKKα (as present in transfected 293 cells)
T2 sequence (O15111 1-745, species assumed, looked up): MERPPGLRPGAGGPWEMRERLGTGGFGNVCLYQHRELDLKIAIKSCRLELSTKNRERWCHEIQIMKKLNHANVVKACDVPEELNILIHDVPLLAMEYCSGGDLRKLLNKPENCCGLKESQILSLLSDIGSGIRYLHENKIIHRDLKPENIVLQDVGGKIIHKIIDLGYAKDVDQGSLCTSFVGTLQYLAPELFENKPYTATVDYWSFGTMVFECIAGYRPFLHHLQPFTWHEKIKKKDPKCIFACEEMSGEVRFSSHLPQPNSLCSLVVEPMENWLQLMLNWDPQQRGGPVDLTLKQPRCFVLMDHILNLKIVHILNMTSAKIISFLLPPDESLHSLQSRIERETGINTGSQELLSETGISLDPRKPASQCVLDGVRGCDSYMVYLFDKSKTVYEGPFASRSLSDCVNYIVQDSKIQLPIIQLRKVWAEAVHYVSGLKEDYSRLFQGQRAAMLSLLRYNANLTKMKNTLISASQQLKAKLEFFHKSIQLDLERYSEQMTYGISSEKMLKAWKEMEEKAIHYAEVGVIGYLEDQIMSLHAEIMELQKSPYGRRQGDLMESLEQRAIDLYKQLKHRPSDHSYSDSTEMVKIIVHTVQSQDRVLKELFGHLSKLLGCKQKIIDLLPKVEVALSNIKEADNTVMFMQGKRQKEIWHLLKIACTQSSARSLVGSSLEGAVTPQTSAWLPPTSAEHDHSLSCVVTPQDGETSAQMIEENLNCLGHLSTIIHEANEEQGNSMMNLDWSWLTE

Row | Protein | phosphorylation of coimmunoprecipitated IKKα (K44M) in immunocomplex kinase reaction [1] | IKKα activity (in vitro kinase reaction on GST-IκBα (1-62)) [2]
1 | Myc-NIK (protein) MAVMEMACPGAPGSAVGQQKELPKPKEKTPPLGKKQSSVYKLEAVEKSPVFCGKWEILNDVITKGTAKEGSEAGPAAISIIAQAECENSQEFSPTFSERIFIAGSKQYSQSESLDQIPNNVAHATEGKMARVCWKGKRRSKARKKRKKKSSKSLAHAGVALAKPLPRTPEQESCTIPVQEDESPLGAPYVRNTPQFTKPLKEPGLGQLCFKQLGEGLRPALPRSELHKLISPLQCLNHVWKLHHPQDGGPLPLPTHPFPYSRLPHPFPFHPLQPWKPHPLESFLGKLACVDSQKPLPDPHLSKLACVDSPKPLPGPHLEPSCLSRGAHEKFSVEEYLVHALQGSVSSSQAHSLTSLAKTWAARGSRSREPSPKTEDNEGVLLTEKLKPVDYEYREEVHWATHQLRLGRGSFGEVHRMEDKQTGFQCAVKKVRLEVFRAEELMACAGLTSPRIVPLYGAVREGPWVNIFMELLEGGSLGQLVKEQGCLPEDRALYYLGQALEGLEYLHSRRILHGDVKADNVLLSSDGSHAALCDFGHAVCLQPDGLGKSLLTGDYIPGTETHMAPEVVLGRSCDAKVDVWSSCCMMLHMLNGCHPWTQFFRGPLCLKIASEPPPVREIPPSCAPLTAQAIQEGLRKEPIHRVSAAELGGKVNRALQQVGGLKSPWRGEYKEPRHPPPNQANYHQTLHAQPRELSPRAPGPRPAEETTGRAPKLQPPLPPEPPEPNKSPPLTLSKEESGMWEPLPLSSLEPAPARNPSSPERKATVPEQELQQLEIELFLNSLSQPFSLEEQEQILSCLSIDSLSLSDDSEKNPSKASQSSRDTLSSGVHSWSSQAEARSSSWNMVLARGRPTDTPSYFNGVKVQIQSLNGEHLHIREFHRVKVGDIATGISSQIPAAAFSLVTKDGQPVRYDMEVPDSGIDLQCTLAPDGSFAWSWRVKHGQLENRP | wild-type NIK and mutant NIK-S549A and NIK-T552A effectively phosphorylated the coimmunoprecipitated IKKα (K44M) protein in vitro | 
2 | NIK-S549A (protein) MAVMEMACPGAPGSAVGQQKELPKPKEKTPPLGKKQSSVYKLEAVEKSPVFCGKWEILNDVITKGTAKEGSEAGPAAISIIAQAECENSQEFSPTFSERIFIAGSKQYSQSESLDQIPNNVAHATEGKMARVCWKGKRRSKARKKRKKKSSKSLAHAGVALAKPLPRTPEQESCTIPVQEDESPLGAPYVRNTPQFTKPLKEPGLGQLCFKQLGEGLRPALPRSELHKLISPLQCLNHVWKLHHPQDGGPLPLPTHPFPYSRLPHPFPFHPLQPWKPHPLESFLGKLACVDSQKPLPDPHLSKLACVDSPKPLPGPHLEPSCLSRGAHEKFSVEEYLVHALQGSVSSSQAHSLTSLAKTWAARGSRSREPSPKTEDNEGVLLTEKLKPVDYEYREEVHWATHQLRLGRGSFGEVHRMEDKQTGFQCAVKKVRLEVFRAEELMACAGLTSPRIVPLYGAVREGPWVNIFMELLEGGSLGQLVKEQGCLPEDRALYYLGQALEGLEYLHSRRILHGDVKADNVLLSSDGSHAALCDFGHAVCLQPDGLGKALLTGDYIPGTETHMAPEVVLGRSCDAKVDVWSSCCMMLHMLNGCHPWTQFFRGPLCLKIASEPPPVREIPPSCAPLTAQAIQEGLRKEPIHRVSAAELGGKVNRALQQVGGLKSPWRGEYKEPRHPPPNQANYHQTLHAQPRELSPRAPGPRPAEETTGRAPKLQPPLPPEPPEPNKSPPLTLSKEESGMWEPLPLSSLEPAPARNPSSPERKATVPEQELQQLEIELFLNSLSQPFSLEEQEQILSCLSIDSLSLSDDSEKNPSKASQSSRDTLSSGVHSWSSQAEARSSSWNMVLARGRPTDTPSYFNGVKVQIQSLNGEHLHIREFHRVKVGDIATGISSQIPAAAFSLVTKDGQPVRYDMEVPDSGIDLQCTLAPDGSFAWSWRVKHGQLENRP | wild-type NIK and mutant NIK-S549A and NIK-T552A effectively phosphorylated the coimmunoprecipitated IKKα (K44M) protein in vitro | 
3 | NIK-T552A (protein) MAVMEMACPGAPGSAVGQQKELPKPKEKTPPLGKKQSSVYKLEAVEKSPVFCGKWEILNDVITKGTAKEGSEAGPAAISIIAQAECENSQEFSPTFSERIFIAGSKQYSQSESLDQIPNNVAHATEGKMARVCWKGKRRSKARKKRKKKSSKSLAHAGVALAKPLPRTPEQESCTIPVQEDESPLGAPYVRNTPQFTKPLKEPGLGQLCFKQLGEGLRPALPRSELHKLISPLQCLNHVWKLHHPQDGGPLPLPTHPFPYSRLPHPFPFHPLQPWKPHPLESFLGKLACVDSQKPLPDPHLSKLACVDSPKPLPGPHLEPSCLSRGAHEKFSVEEYLVHALQGSVSSSQAHSLTSLAKTWAARGSRSREPSPKTEDNEGVLLTEKLKPVDYEYREEVHWATHQLRLGRGSFGEVHRMEDKQTGFQCAVKKVRLEVFRAEELMACAGLTSPRIVPLYGAVREGPWVNIFMELLEGGSLGQLVKEQGCLPEDRALYYLGQALEGLEYLHSRRILHGDVKADNVLLSSDGSHAALCDFGHAVCLQPDGLGKSLLAGDYIPGTETHMAPEVVLGRSCDAKVDVWSSCCMMLHMLNGCHPWTQFFRGPLCLKIASEPPPVREIPPSCAPLTAQAIQEGLRKEPIHRVSAAELGGKVNRALQQVGGLKSPWRGEYKEPRHPPPNQANYHQTLHAQPRELSPRAPGPRPAEETTGRAPKLQPPLPPEPPEPNKSPPLTLSKEESGMWEPLPLSSLEPAPARNPSSPERKATVPEQELQQLEIELFLNSLSQPFSLEEQEQILSCLSIDSLSLSDDSEKNPSKASQSSRDTLSSGVHSWSSQAEARSSSWNMVLARGRPTDTPSYFNGVKVQIQSLNGEHLHIREFHRVKVGDIATGISSQIPAAAFSLVTKDGQPVRYDMEVPDSGIDLQCTLAPDGSFAWSWRVKHGQLENRP | wild-type NIK and mutant NIK-S549A and NIK-T552A effectively phosphorylated the coimmunoprecipitated IKKα (K44M) protein in vitro | 
4 | NIK-T559A (protein) MAVMEMACPGAPGSAVGQQKELPKPKEKTPPLGKKQSSVYKLEAVEKSPVFCGKWEILNDVITKGTAKEGSEAGPAAISIIAQAECENSQEFSPTFSERIFIAGSKQYSQSESLDQIPNNVAHATEGKMARVCWKGKRRSKARKKRKKKSSKSLAHAGVALAKPLPRTPEQESCTIPVQEDESPLGAPYVRNTPQFTKPLKEPGLGQLCFKQLGEGLRPALPRSELHKLISPLQCLNHVWKLHHPQDGGPLPLPTHPFPYSRLPHPFPFHPLQPWKPHPLESFLGKLACVDSQKPLPDPHLSKLACVDSPKPLPGPHLEPSCLSRGAHEKFSVEEYLVHALQGSVSSSQAHSLTSLAKTWAARGSRSREPSPKTEDNEGVLLTEKLKPVDYEYREEVHWATHQLRLGRGSFGEVHRMEDKQTGFQCAVKKVRLEVFRAEELMACAGLTSPRIVPLYGAVREGPWVNIFMELLEGGSLGQLVKEQGCLPEDRALYYLGQALEGLEYLHSRRILHGDVKADNVLLSSDGSHAALCDFGHAVCLQPDGLGKSLLTGDYIPGAETHMAPEVVLGRSCDAKVDVWSSCCMMLHMLNGCHPWTQFFRGPLCLKIASEPPPVREIPPSCAPLTAQAIQEGLRKEPIHRVSAAELGGKVNRALQQVGGLKSPWRGEYKEPRHPPPNQANYHQTLHAQPRELSPRAPGPRPAEETTGRAPKLQPPLPPEPPEPNKSPPLTLSKEESGMWEPLPLSSLEPAPARNPSSPERKATVPEQELQQLEIELFLNSLSQPFSLEEQEQILSCLSIDSLSLSDDSEKNPSKASQSSRDTLSSGVHSWSSQAEARSSSWNMVLARGRPTDTPSYFNGVKVQIQSLNGEHLHIREFHRVKVGDIATGISSQIPAAAFSLVTKDGQPVRYDMEVPDSGIDLQCTLAPDGSFAWSWRVKHGQLENRP | failed to phosphorylate the coprecipitating IKKα | the mutant NIK-T559A failed to induce IKKα activity

Source: patent US6645728
